# Experimental data: the RNAGym collection of RNA variant scans (doi:10.1093/nar/gkz1192)
# B1: CPEB3 Ribozyme (parent)
# chain: UAACAGGGGGCCACAGCAGAAGCGUUCACGUCGCAGCCCCUGUCAGAUUCUGGUGAAUCUGCGAAUUCUGCUGUAUAUCUC
# Variants of: B1
# Assay: self-cleavage, relative activity (ratio to wild type); higher = more cleavage; in vitro, sequencing
# Summary of the method: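 After error-prone PCR and barcoding, CPEB3 ribozyme mutant libraries were transcribed with T7 RNA polymerase at 37°C for 5 hours, then given 15 min with DNase I before an EDTA stop, and they cleaved during both steps. Reverse transcription with template switching preceded Illumina sequencing. Relative activity divides a variant's cleaved/total read fraction by the unmutated ribozyme's. At least 5 reads were required per variant, and three batches were averaged.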
row,Variant,self-cleavage
1,A64G C71G,0.31
2,A64G C71U,0.34
3,C62U U72C,0.29
4,C62U U72A,0.4
5,C62U U72G,0.29
6,A65C U67C,0.23
7,G63U U74A,1.29
8,G63U U74G,1.21
9,G63U U74C,1.19
10,G63C C79A,1.09
11,A64U,0.32
12,A64G,0.93
13,A64C,0.29
14,C62U A77C,0.19
15,C62U A77G,0.15
16,C62U A77U,0.17
17,A64U U69G,0.4
18,A64U U69A,0.32
19,A64U U69C,0.29
20,G61U U80C,0.65
21,A65G C79A,0.67

row,Variant,self-cleavage
1,A65G C79G,0.74
2,A64C U74C,0.44
3,G61U U67C,0.21
4,G61U U67G,0.23
5,C62U U74G,0.19
6,C62U U74A,0.32
7,C62A A75G,0.12
8,C62G C79A,0.24
9,C62A U72C,0.24
10,C62A U72A,0.17
11,C62A U72G,0.19
12,A64U U67A,0.29
13,A64U U67C,0.32
14,A65U U74A,0.44
15,G61U U74C,1.19
16,A65U U66C,0.38
17,A64G C68A,0.2
18,U66A G73A,1.04
19,C62G U72C,0.26
20,C62G U72A,0.27
21,G61C U74C,0.23

row,Variant,self-cleavage
1,G61C U74A,0.88
2,A65G U72A,0.4
3,A65G U72C,0.52
4,A65G U72G,0.4
5,G61U U69A,0.3
6,A65C U80C,0.53
7,A64C U67A,0.19
8,A64C U67C,0.2
9,G61U A64U,0.23
10,A64G U80C,0.95
11,A64G U80A,1.03
12,A64G U80G,0.67
13,A64U U72G,0.37
14,A64U U72A,0.35
15,A64U U72C,0.5
16,A65G U78A,0.6
17,A65G U78C,0.42
18,A65G U78G,0.44
19,A65G U66C,0.27
20,A65G U66A,0.17
21,G63A A77U,0.99

row,Variant,self-cleavage
1,G63A A77G,0.74
2,G63U U80A,0.98
3,G63U U80C,1.11
4,C62A U66A,0.48
5,C62A U66C,0.25
6,G63C U66C,0.37
7,C62A U78A,0.16
8,C62A U78C,0.16
9,C62G,0.3
10,C62U,0.2
11,C62A,0.31
12,A64G G73U,1.35
13,A64G G73A,1.24
14,A65G U67G,0.16
15,A65G U67A,0.3
16,A65G U67C,0.32
17,C62A U74C,0.4
18,C62A U74A,0.18
19,A65U U80G,0.21
20,A65U U80C,0.38
21,A65U U80A,0.15
